Measurements reported in the supplement of paper PMC12458215.
± gives the uncertainty stated by the source.

Tested on: HEK293T
Experiment: plasma membrane surface immunostaining intensity (anti-HA, deep receptor scanning) (arbitrary fluorescence units); higher = higher plasma membrane expression

Sequence	plasma membrane surface immunostaining intensity (GPCR class: A)	plasma membrane surface immunostaining intensity (GPCR class: A (Olfactory))	also measured
MAWRGAGPSVPGAPGGVGLSLGLLLQLLLLLGPARGFGDEEERRCDPIRISMCQNLGYNVTKMPNLVGHELQTDAELQLTTFTPLIQYGCSSQLQFFLCSVYVPMCTEKINIPIGPCGGMCLSVKRRCEPVLKEFGFAWPESLNCSKFPPQNDHNHMCMEGPGDEEVPLPHKTPIQPGEECHSVGTNSDQYIWVKRSLNCVLKCGYDAGLYSRSAKEFTDIWMAVWASLCFISTAFTVLTFLIDSSRFSYPERPIIFLSMCYNIYSIAYIVRLTVGRERISCDFEEAAEPVLIQEGLKNTGCAIIFLLMYFFGMASSIWWVILTLTWFLAAGLKWGHEAIEMHSSYFHIAAWAIPAVKTIVILIMRLVDADELTGLCYVGNQNLDALTGFVVAPLFTYLVIGTLFIAAGLVALFKIRSNLQKDGTKTDKLERLMVKIGVFSVLYTVPATCVIACYFYEISNWALFRYSADDSNMAVEMLKIFMSLLVGITSGMWIWSAKTLHTWQKCSNRLVNSGKVKREKRGNGWVKPGKGSETVV [FZD4]			plasma membrane surface immunostaining intensity (GPCR class: F): 5830 ± 270
MTSNFSQPVVQLCYEDVNGSCIETPYSPGSRVILYTAFSFGSLLAVFGNLLVMTSVLHFKQLHSPTNFLIASLACADFLVGVTVMLFSMVRTVESCWYFGAKFCTLHSCCDVAFCYSSVLHLCFICIDRYIVVTDPLVYATKFTVSVSGICISVSWILPLTYSGAVFYTGVNDDGLEELVSALNCVGGCQIIVSQGWVLIDFLLFFIPTLVMIILYSKIFLIAKQQAIKIETTSSKVESSSESYKIRVAKRERKAAKTLGVTVLAFVISWLPYTVDILIDAFMGFLTPAYIYEICCWSAYYNSAMNPLIYALFYPWFRKAIKLILSGDVLKASSSTISLFLE [TAAR8]	352 ± 170		
MEEAILLNQTSLVTYFRLRGLSVNHKARIAMFSMFLIFYVLTLIGNVLIVITIIYDHRLHTPMYFFLSNLSFIDVCHSTVTVPKMLRDVWSEEKLISFDACVTQMFFLHLFACTEIFLLTVMAYDRYVAICKPLQYMIVMNWKVCVLLAVALWTGGTIHSIALTSLTIKLPYCGPDEIDNFFCDVPQVIKLACIDTHVIEILIVSNSGLISVVCFVVLVVSYAVILVSLRQQISKGKRKALSTCAAHLTVVTLFLGHCIFIYSRPSTSLPEDKVVSVFFTAVTPLLNPIIYTLRNEEMKSALNKLVGRKERKEEK [OR4E1]		264 ± 95	
MELWNFTLGSGFILVGILNDSGSPELLCATITILYLLALISNGLLLLAITMEARLHMPMYLLLGQLSLMDLLFTSVVTPKALADFLRRENTISFGGCALQMFLALTMGGAEDLLLAFMAYDRYVAICHPLTYMTLMSSRACWLMVATSWILASLSALIYTVYTMHYPFCRAQEIRHLLCEIPHLLKVACADTSRYELMVYVMGVTFLIPSLAAILASYTQILLTVLHMPSNEGRKKALVTCSSHLTVVGMFYGAATFMYVLPSSFHSTRQDNIISVFYTIVTPALNPLIYSLRNKEVMRALRRVLGKYMLPAHSTL [OR2AG1]		135 ± 23	
MAANVSGAKSCPANFLAAADDKLSGFQGDFLWPILVVEFLVAVASNGLALYRFSIRKQRPWHPAVVFSVQLAVSDLLCALTLPPLAAYLYPPKHWRYGEAACRLERFLFTCNLLGSVIFITCISLNRYLGIVHPFFARSHLRPKHAWAVSAAGWVLAALLAMPTLSFSHLKRPQQGAGNCSVARPEACIKCLGTADHGLAAYRAYSLVLAGLGCGLPLLLTLAAYGALGRAVLRSPGMTVAEKLRVAALVASGVALYASSYVPYHIMRVLNVDARRRWSTRCPSFADIAQATAALELGPYVGYQVMRGLMPLAFCVHPLLYMAAVPSLGCCCRHCPGYRDSWNPEDAKSTGQALPLNATAAPKPSEPQSRELSQ [P2RY11]	4350 ± 520		
MLMKKNASFEDFFLLLGFSNWPHLEVVLFVVILIFYLITLIGNLFIIILSYLDSHLHTPMYFFLSNLSFLDLCYTTSSIPQLLVNLWGPEKTISYAGCTVQLYFVLALGTAECVLLVVMSYDRYAAVCRPLHYTVLMHPRFCRLLAAASWVSGFTTSALHSSFTFWIPLCRHRLVDHFFCEVPALLRLSCVDTQANELTLMVMSSIFVLIPLILILTSYGAIARAVLSMQSTTGLQKVLRTCGAHLMVVSLFFIPVMCMYLQPPSENSQDQGKFIALFYTVVTPSLNPLIYTFRNKDVRGAVKRLMGWEWGM [OR2J1]		133 ± 36	
MRAPGALLARMSRLLLLLLLKVSASSALGVAPASRNETCLGESCAPTVIQRRGRDAWGPGNSARDVLRARAPREEQGAAFLAGPSWDLPAAPGRDPAAGRGAEASAAGPPGPPTRPPGPWRWKGARGQEPSETLGRGNPTALQLFLQISEEEEKGPRGAGISGRSQEQSVKTVPGASDLFYWPRRAGKLQGSHHKPLSKTANGLAGHEGWTIALPGRALAQNGSLGEGIHEPGGPRRGNSTNRRVRLKNPFYPLTQESYGAYAVMCLSVVIFGTGIIGNLAVMCIVCHNYYMRSISNSLLANLAFWDFLIIFFCLPLVIFHELTKKWLLEDFSCKIVPYIEVASLGVTTFTLCALCIDRFRAATNVQMYYEMIENCSSTTAKLAVIWVGALLLALPEVVLRQLSKEDLGFSGRAPAERCIIKISPDLPDTIYVLALTYDSARLWWYFGCYFCLPTLFTITCSLVTARKIRKAEKACTRGNKRQIQLESQMNCTVVALTILYGFCIIPENICNIVTAYMATGVSQQTMDLLNIISQFLLFFKSCVTPVLLFCLCKPFSRAFMECCCCCCEECIQKSSTVTSDDNDNEYTTELELSPFSTIRREMSTFASVGTHC [GPR37]	158 ± 26		
MEAENLTELSKFLLLGLSDDPELQPVLFGLFLSMYLVTVLGNLLIILAVSSDSHLHTPMYFFLSNLSFVDICFISTTVPKMLVSIQARSKDISYMGCLTQVYFLMMFAGMDTFLLAVMAYDRFVAICHPLHYTVIMNPCLCGLLVLASWFIIFWFSLVHILLMKRLTFSTGTEIPHFFCEPAQVLKVACSNTLLNNIVLYVATALLGVFPVAGILFSYSQIVSSLMGMSSTKGKYKAFSTCGSHLCVVSLFYGTGLGVYLSSAVTHSSQSSSTASVMYAMVTPMLNPFIYSLRNKDVKGALERLLSRADSCP [OR7D4]		157 ± 48	
MAWENQTFNSDFILLGIFNHSPTHTFLFFLVLAIFSVAFMGNSVMVLLIYLDTQLHTPMYFLLSQLFLMDLMLICSTVPKMAFNYLSGSKSISMAGCATQIFFYVSLLGSECFLLAVMSYDRYIAICHPLRYTNLMRPKICGLMTAFSWILGSMDAIIDAVATFSFSYCGSREIAHFFCDFPSLLILSCNDTSIFEKVLFICCIVMIVFPVAIIIASYARVILAVIHMGSGEGRRKAFTTCSSHLMVVGMYYGAGLFMYIRPTSDRSPMQDKLVSVFYTILTPMLNPLIYSLRNKEVTRALRKVLGKGKCGE [OR2M5]		111 ± 20	
MSNITDPQMWDFDDLNFTGMPPADEDYSPCMLETETLNKYVVIIAYALVFLLSLLGNSLVMLVILYSRVGRSVTDVYLLNLALADLLFALTLPIWAASKVNGWIFGTFLCKVVSLLKEVNFYSGILLLACISVDRYLAIVHATRTLTQKRHLVKFVCLGCWGLSMNLSLPFFLFRQAYHPNNSSPVCYEVLGNDTAKWRMVLRILPHTFGFIVPLFVMLFCYGFTLRTLFKAHMGQKHRAMRVIFAVVLIFLLCWLPYNLVLLADTLMRTQVIQESCERRNNIGRALDATEILGFLHSCLNPIIYAFIGQNFRHGFLKILAMHGLVSKEFLARHRVTSYTSSSVNVSSNL [CXCR1]	5900 ± 170		
MVGDTLKLLSPLMTRYFFLLFYSTDSSDLNENQHPLDFDEMAFGKVKSGISFLIQTGVGILGNSFLLCFYNLILFTGHKLRPTDLILSQLALANSMVLFFKGIPQTMAAFGLKYLLNDTGCKFVFYYHRVGTRVSLSTICLLNGFQAIKLNPSICRWMEIKIRSPRFIDFCCLLCWAPHVLMNASVLLLVNGPLNSKNSSAKNNYGYCSYKASKRFSSLHAVLYFSPDFMSLGFMVWASGSMVFFLYRHKQQVQHNHSNRLSCRPSQEARATHTIMVLVSSFFVFYSVHSFLTIWTTVVANPGQWIVTNSVLVASCFPARSPFVLIMSDTHISQFCFACRTRKTLFPNLVVMP [VN1R1]			plasma membrane surface immunostaining intensity (GPCR class: Vomeronasal): 140 ± 8.3
